Laboratory results taken from the Human Domainome abundance scans (Beltran et al. 2025).
± gives the uncertainty stated by the source.

B1: Cyclin-F, residues 28 to 80; numbered along this chain, P41002 (parent)
chain: RNLTILSLPEDVLFHILKWLSVEDILAVRAVHSQLKDLVDNHASVWACASFQE
B2: Max-interacting protein 1, residues 70 to 120; numbered along this chain, P50539 (parent)
chain: STHNELEKNRRAHLRLCLERLKVLIPLGPDCTRHTTLGLLNKAKAHIKKLE

Variants of: B1
Assay: abundance fitness (aPCA) (normalised: wild type 0, dead -1); higher = more abundant; growth selection in yeast, the domain comes from the species named
Details: Homo sapiens

Variant | abundance fitness
RNLTILSLPEDVLFHILKWLSVEDILAVRAVHSQLKDLVDNHASVWACASFQQ | -0.051 ± 0.26
RNLTILSLPEDVLFHILKWLSVEDILAVRAVHSQLKDLVDNHASVWACASFQS | -0.467 ± 0.22
RNLTILSLPEDVLFHILKWLSVEDILAVRAVHSQLKDLVDNHASVWACASFQH | -0.878 ± 0.36
RNLTILSLPEDVLFHILKWLSVEDILAVRAVHSQLKDLVDNHASVWACASFQT | -0.349 ± 0.25
RNLTILSLPEDVLFHILKWLSVEDILAVRAVHSQLKDLVDNHASVWACASFQK | 0.081 ± 0.26
RNLTILSLPEDVLFHILKWLSVEDILAVRAVHSQLKDLVDNHASVWACASFQI | -0.533 ± 0.49
RNLTILSLPEDVLFHILKWLSVEDILAVRAVHSQLKDLVDNHASVWACASFQR | -0.068 ± 0.15
RNLTILSLPEDVLFHILKWLSVEDILAVRAVHSQLKDLVDNHASVWACASFQL | -0.543 ± 0.42
RNLTILSLPEDVLFHILKWLSVEDILAVRAVHSQLKDLVDNHASVWACASFQM | -0.39 ± 0.34
RNLTILSLPEDVLFHILKWLSVEDILAVRAVHSQLKDLVDNHASVWACASFQV | -0.538 ± 0.19
RNLTILSLPEDVLFHILKWLSVEDILAVRAVHSQLKDLVDNHASVWACASFQP | -0.375 ± 0.34

Variants of: B2
Assay: as above
Details: Homo sapiens

Variant | abundance fitness
STHNELEKNRRAHLRLCLERLKVLIPLGPDCTRHTTLGELNKAKAHIKKLE | -0.597 ± 0.13
STHNELEKNRRAHLRLCLERLKVLIPLGPDCTRHTTLGLLNKAKAHIKKKE | -0.342 ± 0.19
STHNELEKNRRAHLRLCLERLKVLIPYGPDCTRHTTLGLLNKAKAHIKKLE | -0.39 ± 0.15
STHNELEKNRRAHLRLCLERLKVLIPLGPDCTCHTTLGLLNKAKAHIKKLE | -0.365 ± 0.11
STHNELEKNRRAHLRLCLERLKVLIPLGPDCTSHTTLGLLNKAKAHIKKLE | -0.44 ± 0.097
STHNELEKNRRAHLRLCLERLKVLIPLGHDCTRHTTLGLLNKAKAHIKKLE | 0.262 ± 0.16
STHNELEKNRRAHLRLCLERLKVLIPLGADCTRHTTLGLLNKAKAHIKKLE | 0.466 ± 0.11
STHNELEKNRRAHLRLCLERLKVLIPLGMDCTRHTTLGLLNKAKAHIKKLE | 0.282 ± 0.15
STHNELEKNRRAHLRLYLERLKVLIPLGPDCTRHTTLGLLNKAKAHIKKLE | -0.284 ± 0.14
STHNELEWNRRAHLRLCLERLKVLIPLGPDCTRHTTLGLLNKAKAHIKKLE | -0.444 ± 0.11
STHNELEKNRRAHLRLCLERLKVLIPLGPWCTRHTTLGLLNKAKAHIKKLE | 0.034 ± 0.11
STHNELEKNRRAHLRLCLERLKVLIPLGPDCPRHTTLGLLNKAKAHIKKLE | -0.303 ± 0.15
STHNELEKNRRAHLRLCLERLKVLIPLGPDCKRHTTLGLLNKAKAHIKKLE | -0.239 ± 0.12
STHNELEKNRRAHLRLCLERLKVLIPLGPDCIRHTTLGLLNKAKAHIKKLE | 0.139 ± 0.12
STHNELEKNRRAHLRLCLERLRVLIPLGPDCTRHTTLGLLNKAKAHIKKLE | -0.121 ± 0.095
STHNEAEKNRRAHLRLCLERLKVLIPLGPDCTRHTTLGLLNKAKAHIKKLE | -0.171 ± 0.1
STHNELEKNRRAHLRLCLERLKVLIPLGPDCTRHTTLGLLNKAKFHIKKLE | -0.346 ± 0.15
STHNELEKNRRAHLRLCLERLKQLIPLGPDCTRHTTLGLLNKAKAHIKKLE | 0.123 ± 0.16
STHNELEKNRRAHLRLCLERLKDLIPLGPDCTRHTTLGLLNKAKAHIKKLE | -0.127 ± 0.12
STHNELEKNRRAHLRLCLERLKVLIPLGPDCTRHTTLGLWNKAKAHIKKLE | 0.323 ± 0.083

Variant | abundance fitness
MTHNELEKNRRAHLRLCLERLKVLIPLGPDCTRHTTLGLLNKAKAHIKKLE | -0.797 ± 0.38
STHNELEKNRRAHLRSCLERLKVLIPLGPDCTRHTTLGLLNKAKAHIKKLE | 0.218 ± 0.1
STHNELEKNRRAHLRLCLERLKVLINLGPDCTRHTTLGLLNKAKAHIKKLE | 0.063 ± 0.28
STHNELEKNRRAHLRLCLERLKVLIPLGPDCTRHTTLGLLNKAKAHIKKLF | 0.332 ± 0.22
STHNELEKNRRAHLRLCLERLKVLIPLGPDCTRHTTLGLLNKAKAHIKKLM | 0.571 ± 0.46
STHNELEKNRRAHLRLCLERLKVLIPLGPDCTRHTTLGLLNKAKAHIKKLH | 0.368 ± 0.28
STHNELEKNRRHHLRLCLERLKVLIPLGPDCTRHTTLGLLNKAKAHIKKLE | -0.666 ± 0.17
STHNRLEKNRRAHLRLCLERLKVLIPLGPDCTRHTTLGLLNKAKAHIKKLE | -0.27 ± 0.097
STHNELVKNRRAHLRLCLERLKVLIPLGPDCTRHTTLGLLNKAKAHIKKLE | -0.185 ± 0.092
STHNELEKNRRAVLRLCLERLKVLIPLGPDCTRHTTLGLLNKAKAHIKKLE | -0.339 ± 0.093
STHNELEKNRRADLRLCLERLKVLIPLGPDCTRHTTLGLLNKAKAHIKKLE | -0.604 ± 0.15
STHNELEKNRRAHLRLCLERLKVLIPLGPDMTRHTTLGLLNKAKAHIKKLE | -0.087 ± 0.12
STHNELEKNRRAHLRLCLEYLKVLIPLGPDCTRHTTLGLLNKAKAHIKKLE | -0.884 ± 0.17
STHNELEKNRRAHLRLCLERAKVLIPLGPDCTRHTTLGLLNKAKAHIKKLE | -0.547 ± 0.11
STHNELEKNRRAHLRLCLERCKVLIPLGPDCTRHTTLGLLNKAKAHIKKLE | -0.503 ± 0.14
STHNELEKNRRAHLRLCLERLKVLIPLGPDCTRHTTLGLLNKAKASIKKLE | 0.237 ± 0.1
STHNELEKNRRAHLRLCLERLKVLLPLGPDCTRHTTLGLLNKAKAHIKKLE | -0.172 ± 0.09
STHNELEKNRRAHLRLCLFRLKVLIPLGPDCTRHTTLGLLNKAKAHIKKLE | -0.623 ± 0.19
STHNELEKNRRAHLRLCLERLKVLIPLGPDCTRHTTLTLLNKAKAHIKKLE | -0.069 ± 0.1
STHNELEKNRRAHLRLCLERLKVLIPLGPDCTRHTTLMLLNKAKAHIKKLE | 0.118 ± 0.12
